In publication PMC8808070 (The Journal of Biological Chemistry, 2021):
One block for each molecule: values may come before it.

Legend:
YjgCD (ForCE1) [1] = biological target: T1, YjgCD (ForCE1) (Bacillus subtilis, UniProt O34720); assay: copurification, HPLC-ECD-MS of lipid extracts; EPR of bound menasemiquinone radical; format: binding; settings: copurified without detergent; neutral menasemiquinone form seen by EPR at pH 6.0 and 7.5
T1 construct: gene forC; full-length YjgC with N-terminal 6His tag and TEV site, copurified with untagged YjgD; homologous expression in B. subtilis 168; heterodimer 132 kDa; YjgC ~110 kDa, YjgD 21 kDa
T1 sequence (O34720 1-985): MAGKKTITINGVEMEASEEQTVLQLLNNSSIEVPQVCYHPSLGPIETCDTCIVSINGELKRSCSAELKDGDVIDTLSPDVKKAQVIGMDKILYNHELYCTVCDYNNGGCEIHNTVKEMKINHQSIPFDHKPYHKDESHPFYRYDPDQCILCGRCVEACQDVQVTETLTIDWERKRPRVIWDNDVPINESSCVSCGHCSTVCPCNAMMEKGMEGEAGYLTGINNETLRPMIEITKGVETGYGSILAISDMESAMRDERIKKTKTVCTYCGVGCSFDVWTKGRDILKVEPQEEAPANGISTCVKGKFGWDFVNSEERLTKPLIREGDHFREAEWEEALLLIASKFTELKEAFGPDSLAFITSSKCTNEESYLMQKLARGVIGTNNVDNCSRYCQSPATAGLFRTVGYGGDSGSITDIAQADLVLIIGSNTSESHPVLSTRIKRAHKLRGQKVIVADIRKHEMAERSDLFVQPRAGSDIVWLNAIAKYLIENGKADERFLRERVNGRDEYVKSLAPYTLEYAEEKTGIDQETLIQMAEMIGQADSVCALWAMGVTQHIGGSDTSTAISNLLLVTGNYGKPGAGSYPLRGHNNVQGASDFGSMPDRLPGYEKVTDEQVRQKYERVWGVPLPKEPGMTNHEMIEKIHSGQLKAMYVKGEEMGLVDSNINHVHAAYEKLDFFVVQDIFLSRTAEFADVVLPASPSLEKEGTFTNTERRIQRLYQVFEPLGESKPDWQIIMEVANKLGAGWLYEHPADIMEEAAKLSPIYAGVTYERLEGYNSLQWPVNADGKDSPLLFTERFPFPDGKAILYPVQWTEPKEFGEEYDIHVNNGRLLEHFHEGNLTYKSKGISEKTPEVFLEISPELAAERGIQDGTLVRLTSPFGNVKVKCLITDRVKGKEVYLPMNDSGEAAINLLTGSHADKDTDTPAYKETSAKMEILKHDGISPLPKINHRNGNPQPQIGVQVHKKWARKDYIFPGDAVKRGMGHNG
T1 sequence (O34681 1-186 partner): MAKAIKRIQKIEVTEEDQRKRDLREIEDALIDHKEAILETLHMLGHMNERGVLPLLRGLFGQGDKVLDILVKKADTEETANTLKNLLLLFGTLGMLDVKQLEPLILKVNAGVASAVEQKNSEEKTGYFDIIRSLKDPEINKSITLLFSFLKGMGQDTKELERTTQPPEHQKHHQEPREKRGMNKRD

YrhED (ForCE2) = biological target: T2, YrhED (ForCE2) (Bacillus subtilis, UniProt Q795Y4); assay: as above; format: binding; settings: copurified without detergent; menasemiquinone radical seen by EPR
T2 construct: gene fdhE; full-length YrhE with N-terminal 6His tag and TEV site, copurified with untagged YrhD; homologous expression in B. subtilis 168; heterodimer 125 kDa; YrhE ~110 kDa, YrhD 17 kDa
T2 sequence (Q795Y4 1-980): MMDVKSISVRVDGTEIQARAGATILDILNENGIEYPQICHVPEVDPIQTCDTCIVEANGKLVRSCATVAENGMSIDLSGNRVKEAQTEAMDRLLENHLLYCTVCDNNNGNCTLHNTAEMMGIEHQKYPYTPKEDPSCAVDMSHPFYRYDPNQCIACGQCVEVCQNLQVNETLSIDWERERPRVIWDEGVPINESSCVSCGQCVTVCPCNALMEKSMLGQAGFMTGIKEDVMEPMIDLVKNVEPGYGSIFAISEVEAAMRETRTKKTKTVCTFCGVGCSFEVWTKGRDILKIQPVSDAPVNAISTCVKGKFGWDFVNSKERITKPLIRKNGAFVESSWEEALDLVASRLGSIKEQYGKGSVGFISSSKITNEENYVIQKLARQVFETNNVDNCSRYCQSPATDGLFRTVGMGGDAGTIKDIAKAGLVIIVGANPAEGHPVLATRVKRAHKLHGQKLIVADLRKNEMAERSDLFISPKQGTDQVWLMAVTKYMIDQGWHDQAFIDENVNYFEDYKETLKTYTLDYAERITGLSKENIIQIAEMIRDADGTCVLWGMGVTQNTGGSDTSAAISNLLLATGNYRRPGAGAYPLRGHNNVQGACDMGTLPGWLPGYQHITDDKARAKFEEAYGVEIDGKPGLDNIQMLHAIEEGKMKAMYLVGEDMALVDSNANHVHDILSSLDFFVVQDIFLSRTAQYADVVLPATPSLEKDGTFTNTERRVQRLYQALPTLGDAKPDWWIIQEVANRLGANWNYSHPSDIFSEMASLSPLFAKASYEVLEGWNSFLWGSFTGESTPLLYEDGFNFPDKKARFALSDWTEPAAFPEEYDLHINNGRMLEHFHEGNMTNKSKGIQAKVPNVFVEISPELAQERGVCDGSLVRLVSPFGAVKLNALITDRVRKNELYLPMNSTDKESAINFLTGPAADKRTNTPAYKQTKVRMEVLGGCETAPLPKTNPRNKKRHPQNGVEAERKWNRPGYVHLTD
T2 sequence (O05396 1-160 partner): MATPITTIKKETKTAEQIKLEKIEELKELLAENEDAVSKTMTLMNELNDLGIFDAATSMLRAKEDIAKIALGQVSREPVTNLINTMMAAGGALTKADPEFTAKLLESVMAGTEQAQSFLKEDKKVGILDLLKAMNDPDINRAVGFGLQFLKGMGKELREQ

YjgCD (ForCE1) [2] = biological target: T1, YjgCD (ForCE1); assay: copurification, HPLC-ECD-MS of lipid extracts; format: binding; settings: copurified without detergent, minor species
purified protein [3] = substrate: CC1=CC(=O)c2ccccc2C1=O; assay: purified protein; format: biochemical, Bacillus subtilis; settings: 50 mM sodium formate as electron donor, 25 mM CHES pH 9, room temperature, anaerobic
purified protein [4] = substrate: O=CO; assay: purified protein; settings: anaerobic
[5] = benzyl viologen as electron acceptor (1.75 mM), 25 mM CHES pH 8.6, room temperature, pH 8.6
[6] = benzyl viologen as electron acceptor (17.5 mM), 25 mM CHES pH 10, room temperature, pH 10.0

ForCE1-MK-7 ratio (YjgCD (ForCE1) [1]): 1:0.87 | ForCE2-MK-7 ratio (YrhED (ForCE2)): 1:1.63
Molecule: CC(C)=CCC/C(C)=C/CC/C(C)=C/CC/C(C)=C/CC/C(C)=C/CC/C(C)=C/CC/C(C)=C/CC1=C(C)C(=O)c2ccccc2C1=O [MK-7]

Molecule: CC(C)=CCC/C(C)=C/CC/C(C)=C/CC/C(C)=C/CC/C(C)=C/CC/C(C)=C/CC/C(C)=C/CC/C(C)=C/CC1=C(C)C(=O)c2ccccc2C1=O [MK-8]
copurification, HPLC-ECD-MS of lipid extracts (YjgCD (ForCE1) [2]): ForCE1 is also able to bind MK-8 at a low but significant ratio

B1: YrhED (ForCE2) (Bacillus subtilis subsp. subtilis str. 168) (protein)
chain: MMDVKSISVRVDGTEIQARAGATILDILNENGIEYPQICHVPEVDPIQTCDTCIVEANGKLVRSCATVAENGMSIDLSGNRVKEAQTEAMDRLLENHLLYCTVCDNNNGNCTLHNTAEMMGIEHQKYPYTPKEDPSCAVDMSHPFYRYDPNQCIACGQCVEVCQNLQVNETLSIDWERERPRVIWDEGVPINESSCVSCGQCVTVCPCNALMEKSMLGQAGFMTGIKEDVMEPMIDLVKNVEPGYGSIFAISEVEAAMRETRTKKTKTVCTFCGVGCSFEVWTKGRDILKIQPVSDAPVNAISTCVKGKFGWDFVNSKERITKPLIRKNGAFVESSWEEALDLVASRLGSIKEQYGKGSVGFISSSKITNEENYVIQKLARQVFETNNVDNCSRYCQSPATDGLFRTVGMGGDAGTIKDIAKAGLVIIVGANPAEGHPVLATRVKRAHKLHGQKLIVADLRKNEMAERSDLFISPKQGTDQVWLMAVTKYMIDQGWHDQAFIDENVNYFEDYKETLKTYTLDYAERITGLSKENIIQIAEMIRDADGTCVLWGMGVTQNTGGSDTSAAISNLLLATGNYRRPGAGAYPLRGHNNVQGACDMGTLPGWLPGYQHITDDKARAKFEEAYGVEIDGKPGLDNIQMLHAIEEGKMKAMYLVGEDMALVDSNANHVHDILSSLDFFVVQDIFLSRTAQYADVVLPATPSLEKDGTFTNTERRVQRLYQALPTLGDAKPDWWIIQEVANRLGANWNYSHPSDIFSEMASLSPLFAKASYEVLEGWNSFLWGSFTGESTPLLYEDGFNFPDKKARFALSDWTEPAAFPEEYDLHINNGRMLEHFHEGNMTNKSKGIQAKVPNVFVEISPELAQERGVCDGSLVRLVSPFGAVKLNALITDRVRKNELYLPMNSTDKESAINFLTGPAADKRTNTPAYKQTKVRMEVLGGCETAPLPKTNPRNKKRHPQNGVEAERKWNRPGYVHLTD
notes: full-length YrhE with N-terminal 6His tag and TEV site, copurified with untagged YrhD; homologous expression in B. subtilis 168; heterodimer 125 kDa; YrhE ~110 kDa, YrhD 17 kDa
Km (purified protein [3]): 23 ± 5 µM | Vmax (purified protein [3]): 12.6 µmol/min | kcat (purified protein [3]): 26.4 ± 1.8 s⁻¹ | Km (purified protein [4]; [5]): 1100 ± 100 µM | Vmax (purified protein [4]; [5]): 26.6 µmol/min | kcat (purified protein [4]; [5]): 55.8 s⁻¹

B2: YjgCD (ForCE1) (Bacillus subtilis subsp. subtilis str. 168) (protein)
chain: MAGKKTITINGVEMEASEEQTVLQLLNNSSIEVPQVCYHPSLGPIETCDTCIVSINGELKRSCSAELKDGDVIDTLSPDVKKAQVIGMDKILYNHELYCTVCDYNNGGCEIHNTVKEMKINHQSIPFDHKPYHKDESHPFYRYDPDQCILCGRCVEACQDVQVTETLTIDWERKRPRVIWDNDVPINESSCVSCGHCSTVCPCNAMMEKGMEGEAGYLTGINNETLRPMIEITKGVETGYGSILAISDMESAMRDERIKKTKTVCTYCGVGCSFDVWTKGRDILKVEPQEEAPANGISTCVKGKFGWDFVNSEERLTKPLIREGDHFREAEWEEALLLIASKFTELKEAFGPDSLAFITSSKCTNEESYLMQKLARGVIGTNNVDNCSRYCQSPATAGLFRTVGYGGDSGSITDIAQADLVLIIGSNTSESHPVLSTRIKRAHKLRGQKVIVADIRKHEMAERSDLFVQPRAGSDIVWLNAIAKYLIENGKADERFLRERVNGRDEYVKSLAPYTLEYAEEKTGIDQETLIQMAEMIGQADSVCALWAMGVTQHIGGSDTSTAISNLLLVTGNYGKPGAGSYPLRGHNNVQGASDFGSMPDRLPGYEKVTDEQVRQKYERVWGVPLPKEPGMTNHEMIEKIHSGQLKAMYVKGEEMGLVDSNINHVHAAYEKLDFFVVQDIFLSRTAEFADVVLPASPSLEKEGTFTNTERRIQRLYQVFEPLGESKPDWQIIMEVANKLGAGWLYEHPADIMEEAAKLSPIYAGVTYERLEGYNSLQWPVNADGKDSPLLFTERFPFPDGKAILYPVQWTEPKEFGEEYDIHVNNGRLLEHFHEGNLTYKSKGISEKTPEVFLEISPELAAERGIQDGTLVRLTSPFGNVKVKCLITDRVKGKEVYLPMNDSGEAAINLLTGSHADKDTDTPAYKETSAKMEILKHDGISPLPKINHRNGNPQPQIGVQVHKKWARKDYIFPGDAVKRGMGHNG
notes: full-length YjgC with N-terminal 6His tag and TEV site, copurified with untagged YjgD; homologous expression in B. subtilis 168; heterodimer 132 kDa; YjgC ~110 kDa, YjgD 21 kDa
Km (purified protein [3]): 25 ± 3 µM | Vmax (purified protein [3]): 7.5 µmol/min | kcat (purified protein [3]): 16.5 ± 0.6 s⁻¹ | Km (purified protein [4]; [6]): 5100 ± 900 µM | Vmax (purified protein [4]; [6]): 43.7 µmol/min | kcat (purified protein [4]; [6]): 96.1 s⁻¹
